The target of test [1] is T1, CD38 on CHO (dhfr-) cells transfected with CD38 cDNA (UniProt P28907 1-300, limits assumed).
T1 construct: whole, on cells; also called control antigen CD38; negative control (CD38)
As to the kind of experiment: FACS on CHO cells transfected with EpCAM, CD46 or CD38.

Test [2] deals with T2, CD46 on cells (human colon carcinoma LS174T cells; CHO (dhfr-) cells transfected with CD46 cDNA) (human, UniProt P15529 35-392).
T2 construct: whole, on cells; also called CD46 transfectants; cofactor protein CD46
T2 sequence (looked up): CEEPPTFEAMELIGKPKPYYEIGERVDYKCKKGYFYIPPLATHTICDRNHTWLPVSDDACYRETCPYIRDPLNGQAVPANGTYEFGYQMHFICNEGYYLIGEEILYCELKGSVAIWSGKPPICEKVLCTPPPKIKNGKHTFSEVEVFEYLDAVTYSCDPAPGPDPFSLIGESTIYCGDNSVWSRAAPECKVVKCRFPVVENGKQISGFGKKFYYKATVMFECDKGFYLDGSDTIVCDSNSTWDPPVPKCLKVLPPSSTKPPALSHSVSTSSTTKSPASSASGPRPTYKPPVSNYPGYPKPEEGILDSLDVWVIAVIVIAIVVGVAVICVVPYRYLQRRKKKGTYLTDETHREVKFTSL
Described as above.

The target of test [3] is T3, EpCAM on CHO (dhfr-) cells transfected with EpCAM cDNA (UniProt P16422 24-314, limits assumed).
T3 construct: whole, on cells; also called EP-CAM homotypic adhesion molecule; EpCAM-transfected cells
T3 sequence (looked up): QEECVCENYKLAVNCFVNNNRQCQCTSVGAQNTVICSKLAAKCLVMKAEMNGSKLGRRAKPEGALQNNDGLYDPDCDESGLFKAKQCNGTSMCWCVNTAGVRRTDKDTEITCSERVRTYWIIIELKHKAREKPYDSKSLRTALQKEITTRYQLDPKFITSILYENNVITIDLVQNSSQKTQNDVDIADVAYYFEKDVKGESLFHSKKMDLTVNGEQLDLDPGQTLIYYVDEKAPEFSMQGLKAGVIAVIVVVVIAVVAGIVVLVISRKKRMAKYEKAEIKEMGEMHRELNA
The test is described as above.

The target in test [4] is T4, Affinity-purified human CD46 from LS174T cells (human, UniProt P15529 35-392, limits assumed).
T4 construct: Coupled (640 RU) to CM5 chips for the BIACORE work; also called purified CD46; membrane cofactor protein CD46
T4 sequence (looked up): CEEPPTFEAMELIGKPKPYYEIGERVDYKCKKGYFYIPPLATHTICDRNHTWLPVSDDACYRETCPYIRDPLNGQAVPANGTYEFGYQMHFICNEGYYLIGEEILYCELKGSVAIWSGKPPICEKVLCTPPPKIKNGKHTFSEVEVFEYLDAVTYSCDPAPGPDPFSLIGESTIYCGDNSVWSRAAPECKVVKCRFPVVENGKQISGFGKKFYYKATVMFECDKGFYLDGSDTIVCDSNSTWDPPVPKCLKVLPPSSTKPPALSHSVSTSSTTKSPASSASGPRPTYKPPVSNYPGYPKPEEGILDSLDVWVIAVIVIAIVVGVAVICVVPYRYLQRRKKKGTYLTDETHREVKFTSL
As to the kind of experiment: SPR (BIACORE 3000, 37° C.), purified CD46 coupled to CM5 chip, IgG in solution.

B1: UBS54 IgG (antibody, V domains shown)
VH: QVQLVQSGAEVKKPGSSVRVSCKASGGTFSSYAISWVRQAPGQGLEWMGGIIPIFGTANYAQKFQGRVTITADESTSTAYMELSSLRSEDTAVYYCARDPFLHYWGQGTLVTVST
VL: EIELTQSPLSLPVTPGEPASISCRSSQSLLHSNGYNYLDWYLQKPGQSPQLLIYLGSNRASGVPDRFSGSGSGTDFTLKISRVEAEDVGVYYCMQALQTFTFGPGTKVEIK
modifications: amino acid residue 1 is a pyroglutamic acid (remark to Table III)
notes: Tested as full human IgG1 with kappa light chain; also called anti-EpCAM clone UBS54; encoded by pUBS3000Neo
B1: the binding result in test [1] and in test [2] was “no binding (tested: 20 µg IgG1/ml)” throughout.

B2: 02-237 IgG (antibody, V domains shown)
VH: QVQLVQSGAEVKKPGASVKVSCKASGYTFTSYGISWVRQAPGQGLEWMGWISAYNGNTNYAQKLQGRVTMTTDTSTSTAYMELRSLRSDDTAVYYCARGFPRTSFDSWGQGTLVTVSS
VL: not shown
modifications: amino acid residue 1 is a pyroglutamic acid (remark to Table III)
notes: Tested as human IgG1 (constant domains from pCRU-K01); The N-terminus of its light chain differs slightly from that of UBS54/K53 because of the cloning strategy
As for B2, the binding result in test [1] and in test [3] was “no binding (tested: 20 µg IgG1/ml)” each time. Further, the affinity in test [4], expressed as Kd, was 22 nM.

B3: K53 IgG (antibody, V domains shown)
VH: QVQLVQSGAEVKKPGASVKVSCKASGYTFTSYGISWVRQAPGQGLEWMGWISAYNGNTNYAQKLQGRVTMTTDTSTSTAYMELRSLRSDDTAVYYCARGMMRGVFDYWGQGTLVTVST
VL: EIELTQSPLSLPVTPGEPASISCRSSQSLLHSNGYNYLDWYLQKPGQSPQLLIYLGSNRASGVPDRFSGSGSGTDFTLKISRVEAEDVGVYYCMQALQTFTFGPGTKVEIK
modifications: amino acid residue 1 is a pyroglutamic acid (remark to Table III)
notes: also called clone K53; anti-CD46 clone K53
Consider B3, for which the binding result in test [1] and in test [3] was “no binding (tested: 20 µg IgG1/ml)” throughout. This molecule displayed a Kd in test [4] of 910 nM.
